According to FireProtDB:
Where “and” joins values, the source holds several entries; their conditions need not be identical. Equal entries are not always repeated.

Conditions: whole UniProt chain shown
[1] = Bacillus amyloliquefaciens, pH 5.8, Thermal, DSC, acetate 10 mM, reversible: yes
[2] = Bacillus amyloliquefaciens, pH 6.2, Thermal, DSC, PIPES 0.01 M, NaCl 0.05 M, reversible: yes(54%)
[3] = Bacillus amyloliquefaciens, pH 6.3, 25 °C, GdnSCN, CD, Sodium acetate 50 mM, reversible: yes
[4] = Bacillus amyloliquefaciens, pH 6.3, 25 °C, Thermal, Fluorescence, MES 50 mM, KCl, reversible: yes
[5] = Bacillus amyloliquefaciens, pH 6.3, 25 °C, Urea, CD, MES 50 mM, reversible: yes
[6] = Bacillus amyloliquefaciens, pH 6.3, 25 °C, Urea, Fluorescence, MES 19.3 mM, reversible: yes
[7] = Bacillus amyloliquefaciens, pH 6.3, 25 °C, Urea, Fluorescence, MES 50 mM, reversible: yes
[8] = Bacillus amyloliquefaciens, pH 6.3, Thermal, DSC, MES 50 mM, reversible: yes
[9] = Bacillus amyloliquefaciens, pH 8, 25 °C, Urea, CD, Tris-HCl 25 mM
[10] = Armoracia rusticana, pH 7.4, 21 °C, GdnHCl, CD, Sodium phosphate 20 mM, CaCl2 1 mM, reversible: yes
[11] = Armoracia rusticana, pH 7.4, 21 °C, GdnHCl, Fluorescence, Sodium phosphate 20 mM, CaCl2 1 mM, reversible: yes

B1: wild type, Q7M1T4 (protein)
chain: ASQTITVGPWGGPGGNGWDDGSYTGIRQIELSYKEAIGSFSVIYDLNGEPFSGPKHTSKLPYKNVKIELRFPDEFLESVSGYTAPFSALATPTPVVRSLTFKTNKGRTFGPYGDEEGTYFNLPIENGLIVGFKGRTGDLLDAIGVHMAL
Tm (Artocarpus integer, pH 7.4, Thermal, CD, phosphate buffered saline (PBS) 10 mM, NaCl 150 mM, reversible: no): 65.8 °C | Tm (Artocarpus integer, pH 7.4, Thermal, Fluorescence, phosphate buffered saline (PBS) 10 mM, NaCl 150 mM, reversible: no): 63.9 °C

B2: Thioredoxin wild type, P80579 (protein)
chain: ATMTLTDANFQQAIQGDKPVLVDFWAAWCGPCRMMAPVLEEFAEAHADKVTVAKLNVDENPETTSQFGIMSIPTLILFKGGRPVKQLIGYQPKEQLEAQLADVLQ
denaturant midpoint (higher = more stable) (Alicyclobacillus acidocaldarius subsp. acidocaldarius, pH 7, GdHCl, CD, Sodium phosphate 10 mM, reversible: yes): 2.9 M | Tm (Alicyclobacillus acidocaldarius subsp. acidocaldarius, pH 7, Thermal, CD, Sodium phosphate 10 mM, reversible: yes): 84.5 °C and 88.2 °C | denaturant midpoint (higher = more stable) (Alicyclobacillus acidocaldarius subsp. acidocaldarius, pH 7, Urea, CD, Sodium phosphate 10 mM, reversible: yes): 6.7 M

B3: Ribonuclease wild type, P00648 (protein)
chain: MMKMEGIALKKRLSWISVCLLVLVSAAGMLFSTAAKTETSSHKAHTEAQVINTFDGVADYLQTYHKLPDNYITKSEAQALGWVASKGNLADVAPGKSIGGDIFSNREGKLPGKSGRTWREADINYTSGFRNSDRILYSSDWLIYKTTDHYQTFTKIR
Tm [1]: 54.3 °C | heat capacity change of unfolding [1]: 1.37 kcal/mol/K | unfolding enthalpy (calorimetric) [1]: 126 kcal/mol | unfolding enthalpy (van 't Hoff) [1]: 124 kcal/mol | unfolding free energy (Bacillus amyloliquefaciens, pH 6, 25 °C, Thermal, CD, MES 50 mM, reversible: yes): 10 kcal/mol | Tm [2]: 54.8 °C | unfolding enthalpy (calorimetric) [2]: 128 kcal/mol | denaturant m value [3]: 14.3 kcal/mol/M | denaturant midpoint (higher = more stable) [3]: 0.77 M | unfolding free energy [3]: 11 kcal/mol | unfolding free energy (Bacillus amyloliquefaciens, pH 6.3, 25 °C, Thermal, DSC, MES 50 mM, reversible: yes): 8.52 kcal/mol | heat capacity change of unfolding [4]: 1.88 kcal/mol/K | unfolding enthalpy (van 't Hoff) [4]: 84.5 kcal/mol | unfolding free energy [4]: 10.2 kcal/mol | unfolding free energy (Bacillus amyloliquefaciens, pH 6.3, 25 °C, Thermal, Fluorescence, MES 50 mM): 10.2 kcal/mol | denaturant m value [5]: 2.02 kcal/mol/M | denaturant midpoint (higher = more stable) [5]: 4.53 M | unfolding free energy [5]: 9.18 kcal/mol | denaturant midpoint (higher = more stable) [6]: 2.27 M | unfolding free energy [6]: 10.5 kcal/mol | denaturant m value [7]: 1.92 kcal/mol/M | denaturant midpoint (higher = more stable) [7]: 4.58 M | unfolding free energy [7]: 8.79 kcal/mol | unfolding free energy (Bacillus amyloliquefaciens, pH 6.3, 25 °C, Urea, Fluorescence, MES 1 M): 8.9 kcal/mol | Tm [8]: 51.5 °C | unfolding enthalpy (calorimetric) [8]: 127 kcal/mol | unfolding enthalpy (van 't Hoff) [8]: 126 kcal/mol | denaturant m value [9]: 1.84 kcal/mol/M | unfolding free energy [9]: 7.58 kcal/mol

B4: Peroxidase C2 wild type, P17179 (protein)
chain: MHSSSSLIKLGFLLLLLNVSLSHAQLSPSFYDKTCPQVFDIATNTIKTALRSDPRIAASILRLHFHDCFVNGCDASILLDNTTSFRTEKDAFGNARSARGFDVIDTMKAAVEKACPKTVSCADLLAIAAQKSVVLAGGPSWKVPSGRRDSLRGFMDLANDNLPGPSSTLQVLKDKFRNVGLDRPSDLVALSGGHTFGKNQCQFIMDRLYNFSNSGKPDPTLDKSYLSTLRKQCPRNGNLSVLVDFDLRTPTIFDNKYYVNLKENKGLIQSDQELFSSPDASDTIPLVRAYADGQGKFFDAFVEAMIRMGNLSPSTGKQGEIRLNCRVVNSKPKIMDVVDTNDFASSI
Tm (Armoracia rusticana, pH 7, Thermal, Fluorescence, Unknown, reversible: yes): 74 °C | denaturant m value [10]: 1.8 kcal/mol/M | unfolding free energy [10]: 1.82 kcal/mol | denaturant m value [11]: 0.3 kcal/mol/M | unfolding free energy [11]: 2.2 kcal/mol
